Reference: patent US20150368661A1 (UNIVERSITY OF LOUISVILLE RESEARCH FOUNDATION, published 2015)
Where two headings read alike, the source gives them in different places.

How the values were obtained:
[1] = biological target: T1, HIV-1 Env of strain Q769.h5 (clade A) on Env-pseudotyped virus (HIV-1 Q769.h5 (clade A)); test: cell-based or functional assay
[2] = biological target: T2, HIV-1 Env of strain Du156 (clade C) on Env-pseudotyped virus (HIV-1 Du156 (clade C)); test: cell-based or functional assay
[3] = biological target: T3, HIV-1 Env of strain SF162 (clade B) on Env-pseudotyped virus (HIV-1 SF162 (clade B), UniProt P19550 32-847); test: cell-based or functional assay
[4] = biological target: T4, HIV-1 Env of strain SS1196.1 (clade B) on Env-pseudotyped virus (HIV-1 SS1196.1 (clade B)); test: cell-based or functional assay
[5] = biological target: T5, recombinant gp120 from HIV-1 SF162 (clade B) (HIV-1 SF162 (clade B), UniProt P19550 32-502); test: gp120-ELISA, plate coated with recombinant gp120, non-linear regression; VRC01p (plant-produced)
T5 construct: domain: gp120; also called gp120SF162

[6] = biological target: T1, HIV-1 Env of strain Q769.h5 (clade A) …; test: cell-based or functional assay; remark: listed apart in the source
[7] = biological target: T2, HIV-1 Env of strain Du156 (clade C) on …; test: cell-based or functional assay; remark: listed apart in the source
[8] = biological target: T3, HIV-1 Env of strain SF162 (clade B) on …; test: cell-based or functional assay; remark: listed apart in the source
[9] = biological target: T4, HIV-1 Env of strain SS1196.1 (clade B) …; test: cell-based or functional assay; remark: listed apart in the source
[10] = biological target: T6, recombinant gp120 from HIV-1 DU156 (clade C) (HIV-1 DU156 (clade C)); test: gp120-ELISA, plate coated with recombinant gp120, non-linear regression
T6 construct: domain: gp120; also called gp120DU156

[11] = biological target: T7, recombinant gp120 from HIV-1 Q769.H5 (clade A) (HIV-1 Q769.H5 (clade A)); test: as above
T7 construct: domain: gp120

[12] = biological target: T5, recombinant gp120 from HIV-1 SF162 …; test: VRC01p (plant-produced)
[13] = biological target: T5, recombinant gp120 from HIV-1 SF162 …; test: gp120-ELISA, plate coated with recombinant gp120, non-linear regression
[14] = biological target: T5, recombinant gp120 from HIV-1 SF162 …

B1: VRC01p (Nicotiana benthamiana plant-expressed anti-HIV-1 bnMAb VRC01 IgG1 from the L-(KP6pp)-H construct) (antibody)
light: EIVLTQSPGTLSLSPGETAIISCRTSQYGSLAWYQQRPGQAPRLVIYSGSTRAAGIPDRFSGSRWGPDYNLTISNLESGDFGVYYCQQYEFFGQGTKVQVDIKRTVAAPSVFIFPPSDEQLKSGTASVVCLLNNFYPREAKVQWKVDNALQSGNSQESVTEQDSKDSTYSLSSTLTLSKADYEKHKVYACEVTHQGLRSPVTKSFNRGECGGK
heavy: not shown
notes: also called plant-produced VRC01; VRC01p IgG1
IC50 (µg/ml) for VRC01p alone, HIV-1 neutralization, TZM-bl cells (VRC01p:GRFT series) [1]: 0.37 µg/mL | IC50 (µg/ml) for VRC01p alone, HIV-1 neutralization, TZM-bl cells (VRC01p:MVC series) [1]: 0.54 µg/mL | IC50 (µg/ml) for VRC01p alone, HIV-1 neutralization, TZM-bl cells (VRC01p:TFV series) [1]: 0.47 µg/mL | IC50 (µg/ml) for VRC01p alone, HIV-1 neutralization, TZM-bl cells (VRC01p:GRFT series) [2]: 0.25 µg/mL | IC50 (µg/ml) for VRC01p alone, HIV-1 neutralization, TZM-bl cells (VRC01p:MVC series) [2]: 0.26 µg/mL | IC50 (µg/ml) for VRC01p alone, HIV-1 neutralization, TZM-bl cells (VRC01p:TFV series) [2]: 0.23 µg/mL | IC50 (µg/ml) for VRC01p alone, HIV-1 neutralization, TZM-bl cells (VRC01p:GRFT series) [3]: 0.98 µg/mL | IC50 (µg/ml) for VRC01p alone, HIV-1 neutralization, TZM-bl cells (VRC01p:MVC series) [3]: 0.5 µg/mL | IC50 (µg/ml) for VRC01p alone, HIV-1 neutralization, TZM-bl cells (VRC01p:TFV series) [3]: 0.65 µg/mL | IC50 (µg/ml) for VRC01p alone, HIV-1 neutralization, TZM-bl cells (VRC01p:GRFT series) [4]: 2.61 µg/mL | IC50 (µg/ml) for VRC01p alone, HIV-1 neutralization, TZM-bl cells (VRC01p:MVC series) [4]: 2.22 µg/mL | IC50 (µg/ml) for VRC01p alone, HIV-1 neutralization, TZM-bl cells (VRC01p:TFV series) [4]: 2.14 µg/mL | EC50 [5]: 4.11 µg/mL | VRC01p IC50 (µg/ml), HIV-1 neutralization [6]: 0.17 µg/mL | VRC01p IC50 (µg/ml), HIV-1 neutralization [7]: 0.14 µg/mL | VRC01p IC50 (µg/ml), HIV-1 neutralization [8]: 0.04 µg/mL | VRC01p IC50 (µg/ml), HIV-1 neutralization [9]: 1.32 µg/mL | EC50 [10]: 67.9 µg/mL | EC50 [11]: 0.35 µg/mL | Kd [12]: 3.97 nM

B2: VRC01HEK (HEK293F cell-produced bnMAb VRC01) (antibody)
light: EIVLTQSPGTLSLSPGETAIISCRTSQYGSLAWYQQRPGQAPRLVIYSGSTRAAGIPDRFSGSRWGPDYNLTISNLESGDFGVYYCQQYEFFGQGTKVQVDIKRTVAAPSVFIFPPSDEQLKSGTASVVCLLNNFYPREAKVQWKVDNALQSGNSQESVTEQDSKDSTYSLSSTLTLSKADYEKHKVYACEVTHQGLRSPVTKSFNRGEC
heavy: not shown
notes: also called human cell-produced VRC01; human cell-derived bnMAb
EC50 [10]: 15.1 µg/mL | EC50 [11]: 0.28 µg/mL | EC50 [13]: 4.24 µg/mL | Kd [14]: 3.82 nM
